Experimental data reported in patent US20240181075A1 (EMERGENCE THERAPEUTICS, published 2024).

T1: Nectin-4 extracellular domain Fc fusion recombinant protein (Nec4-VCC) (human, UniProt Q96NY8 32-349)
T1 construct: extracellular domain; also called Nectin-4-VCC-Fc; not shown: Fc part
T1 sequence (looked up): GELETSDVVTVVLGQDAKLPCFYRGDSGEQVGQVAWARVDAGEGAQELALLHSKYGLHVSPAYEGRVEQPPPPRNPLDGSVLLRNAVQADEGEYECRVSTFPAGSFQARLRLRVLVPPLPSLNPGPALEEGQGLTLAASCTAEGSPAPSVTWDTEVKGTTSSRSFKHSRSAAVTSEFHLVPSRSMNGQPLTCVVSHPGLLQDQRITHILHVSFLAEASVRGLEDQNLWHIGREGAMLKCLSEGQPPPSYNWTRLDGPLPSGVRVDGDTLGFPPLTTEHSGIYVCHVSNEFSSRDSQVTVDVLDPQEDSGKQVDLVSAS

T2: human Nectin-4 on cells (CHO cells transfected with human Nectin-4 cDNA); SUM190 tumor cells; normal … (human, UniProt Q96NY8 32-510)
T2 construct: whole, on cells; The cell type that carried it is named under assay in each row; also called PVRL4; PRR4
T2 sequence (looked up): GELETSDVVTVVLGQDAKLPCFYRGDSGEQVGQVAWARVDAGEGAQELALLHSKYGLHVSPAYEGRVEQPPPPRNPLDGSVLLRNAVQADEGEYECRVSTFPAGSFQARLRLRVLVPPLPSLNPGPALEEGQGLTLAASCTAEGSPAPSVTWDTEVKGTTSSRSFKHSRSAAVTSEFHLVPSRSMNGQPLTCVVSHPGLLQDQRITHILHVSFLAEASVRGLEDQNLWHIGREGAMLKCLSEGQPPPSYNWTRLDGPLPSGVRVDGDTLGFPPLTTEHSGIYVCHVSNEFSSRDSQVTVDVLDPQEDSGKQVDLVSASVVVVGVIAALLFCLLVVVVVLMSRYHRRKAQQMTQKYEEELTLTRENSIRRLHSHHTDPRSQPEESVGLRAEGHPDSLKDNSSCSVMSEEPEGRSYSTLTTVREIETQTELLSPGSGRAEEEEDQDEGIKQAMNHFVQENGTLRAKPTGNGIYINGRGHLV

T3: human Nectin-4 with N-terminal Flag epitope tag, expressed on transfected MDA-MB231 cells (human, UniProt Q96NY8 32-510)
T3 construct: whole, on cells; also called PVRL4 cDNA in p3XFLR4.C1
T3 sequence (looked up): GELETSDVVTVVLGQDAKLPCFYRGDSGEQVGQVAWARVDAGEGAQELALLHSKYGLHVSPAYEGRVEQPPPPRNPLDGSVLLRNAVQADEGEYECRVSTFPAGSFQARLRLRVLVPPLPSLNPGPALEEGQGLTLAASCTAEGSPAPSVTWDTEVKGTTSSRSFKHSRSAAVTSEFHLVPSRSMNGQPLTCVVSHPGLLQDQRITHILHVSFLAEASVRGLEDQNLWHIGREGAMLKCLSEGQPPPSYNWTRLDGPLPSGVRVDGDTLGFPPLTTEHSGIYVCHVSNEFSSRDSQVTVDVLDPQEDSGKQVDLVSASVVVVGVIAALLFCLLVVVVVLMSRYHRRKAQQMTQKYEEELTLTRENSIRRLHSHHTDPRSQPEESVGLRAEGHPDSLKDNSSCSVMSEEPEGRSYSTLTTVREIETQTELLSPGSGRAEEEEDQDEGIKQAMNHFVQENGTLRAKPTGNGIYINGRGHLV

T4: Nectin-1 extracellular domain Fc fusion recombinant protein (Nec1-VCC) (UniProt Q15223 31-355, limits assumed)
T4 construct: extracellular domain; also called Nectin-1-VCC-Fc; not shown: Fc part
T4 sequence (looked up): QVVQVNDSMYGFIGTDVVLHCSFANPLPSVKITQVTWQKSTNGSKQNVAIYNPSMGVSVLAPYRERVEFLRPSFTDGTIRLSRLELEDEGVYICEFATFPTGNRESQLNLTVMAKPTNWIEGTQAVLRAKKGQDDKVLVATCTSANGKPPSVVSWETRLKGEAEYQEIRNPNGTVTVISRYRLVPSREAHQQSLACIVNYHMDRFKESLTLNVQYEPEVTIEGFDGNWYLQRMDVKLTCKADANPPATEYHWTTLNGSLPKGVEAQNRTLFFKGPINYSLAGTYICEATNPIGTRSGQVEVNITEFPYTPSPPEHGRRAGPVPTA

T5: Nectin-4 IgV-like domain Fc fusion recombinant protein (Nec4-V) (human, UniProt Q96NY8 32-146, limits assumed)
T5 construct: domain: IgV-like domain; also called Nectin-4-V-Fc; not shown: Fc part
T5 sequence (looked up): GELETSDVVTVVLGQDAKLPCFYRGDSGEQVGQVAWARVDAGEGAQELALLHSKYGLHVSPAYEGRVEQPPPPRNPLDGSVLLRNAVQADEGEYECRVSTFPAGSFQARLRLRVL


Experiments:
[1] = target: T1, Nectin-4 extracellular domain Fc fusion …; test: statement in the legend of the competition ELISA on coated Nec4-VCC
Method: Competition assay was performed by ELISA. [0435] Ninety-six-wells plates were coated with 5 μg/mL of Nectin-4 extracellular domain Fc fusion recombinant protein (Nec4-VCC) overnight at 4° C.
(§1) One hundred μL of peroxidase substrate was added (One Step ABST, Pierce), and OD was red at 405 nm.

[2] = target: T2, human Nectin-4 on cells (CHO cells …); test: flow cytometry on normal differentiated human keratinocytes (NHEK); reference antibody of the comparison
[3] = target: T3, human Nectin-4 with N-terminal Flag …; test: flow cytometry on MDA-MB231 cells transfected with N-terminal Flag-tagged Nectin-4, anti-human Fc PE detection
Source text: Detection by flow cytometry. [0431] […] Cells were then stained with phycoerythrin conjugate goat anti human Fc antibody. The normalized mean fluorescence intensity is shown. […] Mean fluorescence intensity is represented.

[4] = target: T4, Nectin-1 extracellular domain Fc fusion …; test: ELISA, plate coated with Nec1-VCC Fc fusion protein
Method: (§2) Detection by ELISA. [0433]
as §1

[5] = target: T5, Nectin-4 IgV-like domain Fc fusion …; test: ELISA, plate coated with Nec4-V Fc fusion, peroxidase-conjugated antibody
Method: as §2, §1

[6] = target: T1, Nectin-4 extracellular domain Fc fusion …; test: ELISA, plate coated with Nec4-VCC Fc fusion, peroxidase-conjugated antibody
Method: as §2, §1

[7] = target: T2, human Nectin-4 on cells (CHO cells …); test: flow cytometry on normal differentiated human keratinocytes (NHEK), compared with SUM190 tumor cells

Binder | binding result [1] | binding result [2] | binding result [3] | binding result [4] | binding result [5] | binding result [6] | binding result [7]
HA22 (Enfortumab), human monoclonal anti-Nectin-4 antibody (antibody, V domains shown, also called Enfortumab (HA22); HA22 mAb) VH: EVQLVESGGGLVQPGGSLRLSCAASGFTFSSYNMNWVRQAPGKGLEWVSYISSSSSTIYYADSVKGRFTISRDNAKNSLSLQMNSLRDEDTAVYYCARAYYYGMDVWGQGTTVTVSS VL: DIQMTQSPSSVSASVGDRVTITCRASQGISGWLAWYQQKPGKAPKFLIYAASTLQSGVPSRFSGSGSGTDFTLTISSLQPEDFATYYCQQANSFPPTFGGGTKVEIK | binds | – | – | – | – | – | –
Ch-5A12.2 (chimeric anti-Nectin-4 monoclonal antibody 5A12.2) (antibody, V domains shown, also called Ch-5A12.2 mAb; 5A12.2 mAb) VH: QIQLQQSGAELVKPGASVTLSCKTSGFTFNSMYISWLKQKPGQSLEWIAWIYAGTGGTRFNQKFTGKVQLTVDTSSSTAYMQFSSLTTDDSAIYYCAIRSGFVPMDYWGQGTSVTVSS VL: SIVMTQTPKFLLVSAGDRVTITCKASQSVSNDVAWYQQKPGQSPKLLIYYASNRYTGVPDRFTGSGYGTDFTFTISTVQAEDLAVYFCQQDYSSPWTFGGGTKLEIK | – | binds | binds | – | – | – | –
Ch-15A7.5 (chimeric anti-Nectin-4 monoclonal antibody 15A7.5) (antibody, V domains shown, also called Ch-15A7.5 mAb; Ch-15A7 mAb) VH: EVKLVESGGGLVQPGGSRKLSCAASGFTFSNYGMAWVRQAPGKGPEWVAFISNLAYGINYADTVTGRFTISRENAKNTLYLEMRSLRSEDTAMYYCARGARATGWFAYWGQGTLVTVSA VL: DIVMTQSQKFMSTSIGDRVSVTCKASQNVDTHVAWYQEKPGQSPKALIYSASYRYSGVPDRFTGSGSGTDFTLTISNVQSEDLADYFCQQYNSYPLTFGGGTKLEIK | – | – | binds | no binding | binds | binds | binds
